Results reported in patent US20120207760A1.
Where “and” joins values, the source holds several entries; their conditions need not be identical. Equal values may be shown once.

Target: M2 protein of influenza A/Hong Kong/483/97 (H5N1) (Influenza A virus A/Hong Kong/483/97)

Sequence of TCN-032 (8I10) (antibody) (VH): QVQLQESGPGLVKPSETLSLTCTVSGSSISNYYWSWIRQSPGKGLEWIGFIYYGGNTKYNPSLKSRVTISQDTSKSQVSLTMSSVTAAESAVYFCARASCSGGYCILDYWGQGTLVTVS
Sequence of TCN-032 (8I10) (antibody) (VL): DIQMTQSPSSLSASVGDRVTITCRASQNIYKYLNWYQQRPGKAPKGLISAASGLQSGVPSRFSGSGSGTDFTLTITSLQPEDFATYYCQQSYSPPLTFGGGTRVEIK

For TCN-032 (8I10) (antibody), the FACS M2-HK MFI was 754 MFI and 1080 MFI.
